This passage reports stoichiometry N results from PMC3574120.

Broadly, the stoichiometry N is a count of units in the complex or per binding partner.

The target of this assay is FrpB F3-3 variant (Neisseria meningitidis). Put plainly: crystal structure; FrpB F3-3, space group P212121, three copies in the asymmetric unit about a non-crystallographic 3-fold axis, 2.40 Å; C8E5 detergent; crystals from the monomeric SEC peak.

Consider FrpB F3-3 variant (natural protein), for which the stoichiometry N was 3.
